Data: publication PMC4376794, “Production of Functional Human Vitamin A Transporter/RBP Receptor (STRA6) for Structure Determination” (PLoS ONE, 2015)

Experiments:
[1] = target: T1, retinol binding protein (His-RBP) (UniProt P02753 19-201); test: SPR; apo-RBP (6.9-219.3 uM) flowed over STRA6-GFP captured by its c-Myc tag on immobilised anti-c-Myc antibody (CM5, Biacore 3000); anti-HA antibody reference cell; room temperature; steady-state responses fitted to one site plus a linear low-affinity component; triplicate; conditions: both partners purified
[2] = target: T1, retinol binding protein (His-RBP); test: SPR; holo-RBP (retinol-loaded, 6.9-219.3 uM) flowed over STRA6-GFP captured by its c-Myc tag on immobilised anti-c-Myc antibody (CM5, Biacore 3000); anti-HA antibody reference cell; room temperature; steady-state responses fitted to one site plus a linear low-affinity component; triplicate; conditions: both partners purified

B1: STRA6-GFP-c-Myc-His6 (STRA6-HRV3C-eGFP-Myc-His6) (receptor, human)
chain: MSSQPAGNQTSPGATEDYSYGSWYIDEPQGGEELQPEGEVPSCHTSIPPGLYHACLASLSILVLLLLAMLVRRRQLWPDCVRGRPGLPSPVDFLAGDRPRAVPAAVFMVLLSSLCLLLPDEDALPFLTLASAPSQDGKTEAPRGAWKILGLFYYAALYYPLAACATAGHTAAHLLGSTLSWAHLGVQVWQRAECPQVPKIYKYYSLLASLPLLLGLGFLSLWYPVQLVRSFSRRTGAGSKGLQSSYSEEYLRNLLCRKKLGSSYHTSKHGFLSWARVCLRHCIYTPQPGFHLPLKLVLSATLTGTAIYQVALLLLVGVVPTIQKVRAGVTTDVSYLLAGFGIVLSEDKQEVVELVKHHLWALEVCYISALVLSCLLTFLVLMRSLVTHRTNLRALHRGAALDLSPLHRSPHPSRQAIFCWMSFSAYQTAFICLGLLVQQIIFFLGTTALAFLVLMPVLHGRNLLLFRSLESSWPFWLTLALAVILQNMAAHWVFLETHDGHPQLTNRRVLYAATFLLFPLNVLVGAMVATWRVLLSALYNAIHLGQMDLSLLPPRAATLDPGYYTYRNFLKIEVSQSHPAMTAFCSLLLQAQSLLPRTMAAPQDSLRPGEEDEGMQLLQTKDSMAKGARPGASRGRARWGLAYTLLHNPTLQVFRKTALLGANGAQP
notes: human STRA6, full length (transcript variant 2); In SPR it was held by its C-terminal c-Myc tag on an anti-c-Myc antibody; also called vitamin A transporter/RBP receptor; RBP receptor; source: Pichia pastoris KM71H (pPICZ-A); on whole cells, in broken cells, and purified (solubilised in C12E9, Ni-NTA with exchange to DDM, size exclusion); not shown: GFP (eGFP), C-terminal, kept; c-Myc, …
B1 gave a Kd [1] of 22.4 µM and a Kd [2] of 19.4 µM.
